# Test results taken from paper PMC3079799 (Nature chemical biology, 2011).
# T1: parathyroid hormone receptor type 1 with GFP inserted in its N-terminus (^GFPPTHR) (UniProt Q03431 27-593)
# T1 sequence: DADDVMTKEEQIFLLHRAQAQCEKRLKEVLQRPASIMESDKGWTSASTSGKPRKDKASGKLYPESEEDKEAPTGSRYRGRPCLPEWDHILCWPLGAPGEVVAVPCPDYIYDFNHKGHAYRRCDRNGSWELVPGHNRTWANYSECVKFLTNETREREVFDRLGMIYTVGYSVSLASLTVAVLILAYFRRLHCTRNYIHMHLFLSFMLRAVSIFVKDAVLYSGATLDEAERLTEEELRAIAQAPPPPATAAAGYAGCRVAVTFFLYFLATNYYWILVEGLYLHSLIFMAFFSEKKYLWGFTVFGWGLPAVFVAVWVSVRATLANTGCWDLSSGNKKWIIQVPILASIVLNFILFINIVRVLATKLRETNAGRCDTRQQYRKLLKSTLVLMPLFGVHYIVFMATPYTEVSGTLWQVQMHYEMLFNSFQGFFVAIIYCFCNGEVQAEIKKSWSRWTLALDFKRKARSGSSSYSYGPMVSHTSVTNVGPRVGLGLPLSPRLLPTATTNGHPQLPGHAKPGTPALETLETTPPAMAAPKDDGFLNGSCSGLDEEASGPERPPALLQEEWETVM
# B1: β-arrestin1 fused to tdTomato (β-arr1^tom) (natural protein)
# chain: MGDKGTRVFKKASPNGKLTVYLGKRDFVDHIDLVDPVDGVVLVDPEYLKERRVYVTLTCAFRYGREDLDVLGLTFRKDLFVANVQSFPPAPEDKKPLTRLQERLIKKLGEHAYPFTFEIPPNLPCSVTLQPGPEDTGKACGVDYEVKAFCAENLEEKIHKRNSVRLVIRKVQYAPERPGPQPTAETTRQFLMSDKPLHLEASLDKEIYYHGEPISVNVHVTNNTNKTVKKIKISVRQYADICLFNTAQYKCPVAMEEADDTVAPSSTFCKVYTLTPFLANNREKRGLALDGKLKHEDTNLASSTLLREGANREILGIIVSYKVKVKLVVSRGGLLGDLASSDVAVELPFTLMHPKPKEEPPHREVPENETPVDTNLIELDTNDDDIVFEDFARQRLKGMKDDKEEEEDGTGSPQLNNR
# What was measured:
# [1] = molecular target: T1, parathyroid hormone receptor type 1 …; assay: FRAP
# [2] = molecular target: T1, parathyroid hormone receptor type 1 …; assay: FRAP; remark: listed apart in the source
binder,measurement,setting,value
B1,"half-life (t1/2) of fluorescence recovery (FRAP), after M-PTH(1-28)",[1],69 ± 4.5 s
same,"half-life (t1/2) of fluorescence recovery (FRAP), after PTH(1-34)",[2],30 ± 2.5 s
